Experimental data published in PMC3079244 (Biochemistry, 2011).
Residue numbers refer to the chain shown, from its start. In names and notes the source's numbering stands.

Tests used:
TylM1 = TylM1 (Streptomyces fradiae, UniProt P95748); assay: X-ray crystal structure, […] Å; format: binding; settings: pH 7.0
crystal structure [1] = molecular target: the molecule itself; assay: crystal structure
crystal structure [2] = molecular target: the molecule itself; assay: crystal structure; remark: listed apart in the source

## C[S+](CC[C@H](N)C(=O)O)C[C@H]1O[C@@H](n2cnc3c(N)ncnc32)[C@H](O)[C@@H]1O (some centres unmarked) [SAM]
TylM1; ternary complex with dTDP-phenol, methyl donor site
  X-ray crystal structure, 1.35 Å: The SAM cofactor abuts the first three β-strands of the N-terminal domain

## Cc1cn([C@H]2C[C@H](O)[C@@H](COP(=O)(O)OP(=O)(O)Oc3ccccc3)O2)c(=O)[nH]c1=O [dTDP-phenol]
TylM1; ternary complex with SAM, sugar-nucleotide site
  X-ray crystal structure, 1.35 Å: a close-up view of the binding pocket for dTDP-phenol is presented

B1: TylM1 from Streptomyces fradiae (N,N-dimethyltransferase), wild type (enzyme, UniProt P95748 1-255, looked up)
chain: MAHSSATAGPQADYSGEIAELYDLVHQGKGKDYHREAADLAALVRRHSPKAASLLDVACGTGMHLRHLADSFGTVEGLELSADMLAIARRRNPDAVLHHGDMRDFSLGRRFSAVTCMFSSIGHLAGQAELDAALERFAAHVLPDGVVVVEPWWFPENFTPGYVAAGTVEAGGTTVTRVSHSSREGEATRIEVHYLVAGPDRGITHHEESHRITLFTREQYERAFTAAGLSVEFMPGGPSGRGLFTGLPGAKGETR
Crystal structure [1]
  stoichiometry N: 2

B2: TylM1 H123A mutant protein (enzyme, Streptomyces fradiae, UniProt P95748 1-255, looked up)
chain: B1 chain with H123A
Crystal structure [2]
  binding result: binds

B3: TylM1 H123N mutant protein (enzyme, Streptomyces fradiae, UniProt P95748 1-255, looked up)
chain: B1 chain with H123N
Crystal structure [2]
  binding result: binds
